Series [1] relates to T1, dCas12j-8 E258R+D495R+E547R E258R;D495R;E547R;D369A;E567A;D658A (bacteriophage (metagenome)).
T1 sequence: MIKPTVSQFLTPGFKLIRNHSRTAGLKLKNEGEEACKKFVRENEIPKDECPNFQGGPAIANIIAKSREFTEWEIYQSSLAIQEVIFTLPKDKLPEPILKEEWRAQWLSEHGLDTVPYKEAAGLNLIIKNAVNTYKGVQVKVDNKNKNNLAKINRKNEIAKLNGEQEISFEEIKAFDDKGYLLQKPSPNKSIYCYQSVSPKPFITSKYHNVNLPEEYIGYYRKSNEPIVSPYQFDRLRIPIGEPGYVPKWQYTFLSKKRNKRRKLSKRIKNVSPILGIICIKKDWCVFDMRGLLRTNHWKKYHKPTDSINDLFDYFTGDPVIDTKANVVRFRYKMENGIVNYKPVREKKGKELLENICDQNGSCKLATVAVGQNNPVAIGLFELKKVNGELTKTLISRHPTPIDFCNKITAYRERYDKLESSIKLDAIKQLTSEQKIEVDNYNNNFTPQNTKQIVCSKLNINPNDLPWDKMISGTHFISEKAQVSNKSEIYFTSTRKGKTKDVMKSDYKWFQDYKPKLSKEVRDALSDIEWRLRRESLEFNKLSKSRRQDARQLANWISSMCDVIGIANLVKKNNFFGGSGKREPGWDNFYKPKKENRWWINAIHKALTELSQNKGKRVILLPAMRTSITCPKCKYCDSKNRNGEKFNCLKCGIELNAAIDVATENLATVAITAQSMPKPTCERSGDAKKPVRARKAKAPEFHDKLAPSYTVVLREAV
The settings on record: HEK293T cells; panel 1e (compare within a panel only); scale: mean GFP / mean GFP of wild type, printed, no background subtraction.

The subject of series [2] is T2, dCas12j-8 E258R+E547R E258R;E547R;D369A;E567A;D658A (bacteriophage (metagenome)).
T2 sequence: T1 sequence with R495D
The settings on record: HEK293T cells; panel 1d (compare within a panel only); scale: mean GFP / mean GFP of wild type, printed, no background subtraction.

The test system of series [3] is T3, dCas12j-8 E258R+D313R+D495R+D527R+E547R E258R;D313R;D495R;D527R;E547R;D369A;E567A;D658A (bacteriophage (metagenome)).
T3 sequence: T1 sequence with D313R, D527R
As to conditions: HEK293T cells; panel 1e (compare within a panel only); scale: mean GFP / mean GFP of wild type, printed, no background subtraction.

Where a chain is given by its changes, count along the chain named.

With “CUUUCAAGACUAAUAGAUUGCUCCUUACGAGGAGACACUCCCUAUCAGUGAUAGAG / TTNACTCCCTATCAGTGATAGAG / CTCTATCACTGATAGGGAGTNAA [TetO]”, the binding signal in series [1] was found to be 4.13; in series [2] it was 3.03; in series [3], 5.89.

Values taken from publication PMC12412624, “Engineered Cas12j‐8 is a Versatile Platform for Multiplexed Genome Modulation in Mammalian Cells”.
